First the molecules themselves.
B1: BMS3h-56-246 (other)
VH: EVQLLESGGGLVQPGGSLRLSCAASGFTFRDYEMWWVRQAPGKGLERVSAINPWGTLTYYADSVKGRFTISRDNSKNTLYLQMNSLRAEDTAVYYCAKLPFTFEDWGQGTLVTVSS
notes: domain antibody (dAb): single human VH domain
B2: BMS3h-56-204 (other)
VH: EVQLLESGGGLVQPGGSLRLSCAASGFTFRDYEMWWVRQAPGKGLERVSAINPQGTRTYYADSVKGRFTISRDNSKNTLYLQMNSLRAEDTAVYYCAKLPTYFKDWGQGTLVTVSS
notes: as for B1
B3: BMS3h-56-229 (other)
VH: EVQLLESGGGLVQPGGSLRLSCAASGFTFRDYEMWWVRQAPGKGLERVSAINPYGSLTYYADSVKGRFTISRDNSKNTLYLQMNSLRAEDTAVYYCAKLPFTFDDWGQGTLVTVSS
notes: as for B1
B4: BMS3h-56-207 (other)
VH: EVQLLESGGGLVQPGGSLRLSCAASGFTFRDYEMWWVRQAPGKGLERVSAINPQGTRTYYADSVKGRFTISRDNSKNTLYLQMNSLRAEDTAVYYCAKLPFPFSEWGQGTLVTVSS
notes: as for B1
B5: BMS3h-56-223 (other)
VH: EVQLLESGGGLVQPGGSLRLSCAASGFTFRDYEMWWVRQAPGRGLERVSAINPPGMLTYYADSVKGRFTISRDNSKNTLYLQMNSLRAEDTAVYYCAKLPFTFDDWGQGTLVTVSS
notes: as for B1
B6: BMS3h-56-224 (other)
VH: EVQLLESGGGLVQPGGSLRLSCAASGFTFRDYEMWWVRQAPGKGLERVSAINPWGQLTYYADSVKGRFTISRDNSKNTLYLQMNSLRAEDTAVYYCAKLPFTFEDWGQGTLVTVSS
notes: as for B1
B7: BMS3h-56-225 (other)
VH: EVQLLESGGGLVQPGGSLRLSCAASGFTFRDYEMWWVRQAPGKGLERVSAINPWGGYTYYADSVKGRFTISRDNSKNTLYLQMNSLRAEDTAVYYCAKLPFTFDDWGQGTLVTVSS
notes: as for B1
B8: BMS3h-56-239 (other)
VH: EVQLLESGGGLVQPGGSLRLSCAASGFTFRDYEMWWVRQAPGKGLERVSAINPWGSLTYYADSVKGRFTISRDNSKNTLYLQMNSLRAEDTAVYYCAKLPFTFDDWGQGTLVTVSS
notes: as for B1
B9: BMS3h-56-232 (other)
VH: EVQLLESGGGLVQPGGSLRLSCAASGFTFRDYEMWWVRQAPGKGLERVSAINPWGSHTYYADSVKGRFTISRDNSKNTLYLQMNSLRAEDTAVYYCAKLPFTFDDWGQGTLVTVSS
notes: as for B1
B10: BMS3h-56-205 (other)
VH: EVQLLESGGGLVQPGGSLRLSCAASGFTFRDYEMWWVRQAPGKGLERVSAINPQGTRTYYADSVKGRFTISRDNSKNTLYLQMNSLRAEDTAVYYCAKLPFYFSEWGQGTLVTVSS
notes: as for B1
B11: BMS3h-56-220 (other)
VH: EVQLLESGGGLVQPGGSLRLSCAASGFTFRDYEMWWVRQAPGKGLERVSAINPYGGLTYYADSVKGRFTISRDNSKNTLYLQMNSLRAEDTAVYYCAKLPFTFDDWGQGTLVTVSS
notes: as for B1
B12: BMS3h-37-1 (other)
VH: EVQLLESGGGLVQPGGSLRLSCAASGFTFEWYEMQWVRQAPGKGLEWVSAISGDGYRTYYADSVKGRFTISRDNSMNTLYLQMNSLRAEDTAVYYCAKELGYFDYRGRGTLVTVSS
B13: BMS3h-37-207 (other)
VH: EVQLLESGGGLVQPGGSLRLSCAASGFTFEWYEMQWVRRAPGKGLEWVSAISGDGYRTYYADSVKGRFTISRDNSKNTLYLQMNSLRAEDTAVYYCAKELAFFDYWGRGTLVTVSS
B14: BMS3h-37-213 (other)
VH: EVQLLESGGGLVQPGGSLRLSCAASGFTFEWYEMQWVRRAPGKGLEWVSAISGDGYRTYYADSVKGRFTISRDNSKNTLYLQMNSLRAEDTAVYYCAKELLFFDYRGRGTLVTVSS
B15: BMS3h-37-11 (other)
VH: EVQLLESGGGLVQPGGSLRLSCAASGFTFEWYEMQWVRKAPGKGLEWVSAISGDGYRTYYADSVKGRFTISRDNSKNTLYLQMNSLRAEDTAVYYCAKELGYFDYRGRGTLVTVSS
B16: BMS3h-37-212 (other)
VH: EVQLLESGGGLVRPGGSLRLSCAASGFTFEWYEMQWVRRAPGKGLEWVSAISGDGYRTYYADSVKGRFTISRDNSKNTLYLQMNSLRAEDTAVYYCAKELEFFDYWGRGTLVTVSS
B17: BMS3h-37-206 (other)
VH: EVQLLESGGGLVQPGGSLRLSCAASGFTFEWYEMQWVRRAPGKGLEWVSAISGDGYRTYYADSVKGRFTISRDNSKNTLYLQMNSLRAEDTAVYYCAKGLEYFDYWGRGTLVTVSS
B18: BMS3h-37-202 (other)
VH: EVQLLESGGGLVQPGGSLRLSCAASGFTFEWYEMQWVRRAPGKGLEWVSAISGDGWRTYYADSVKGRFTISRDNSKNTLYLQMNSLRAEDTAVYYCAKELGYFDYWGRGTLVTVSS
B19: BMS3h-37-205 (other)
VH: EVQLLESGGGLVQPGGSLRLSCAASGFTFEWYEMQWVRRAPGKGLEWVSAISGDGYRTYYADSVKGRFTISRDNSKNTLYLQMNSLRAEDTAVYYCAKELEYFDYWGRGTLVTVSS
B20: BMS3h-38-1 (other)
VH: EVQLLGSGGGLVQPGGSLRLSCAASGFTFEEEEMIWVRQAPGKGLEWVSAISGSGGSTYYADSVKGRFTISRDNSKNTLYLQMNSLRAEDTAVYYCSKEPFRFDYWGQGTLVTVSS
B21: BMS3h-38-215 (other)
VH: EVQLLASGGGLVQPGGSLRLSCAASGFTFEEEEMIWVRQAPGKGLEWVSAISGLGWSTYYADSVKGRFTISRDNSKNTLYLQMNSLRAEDTAVYYCGKEPFRYDYWGQGTLVTVSS
B22: BMS3h-38-217 (other)
VH: EVQLLASGGGLVQPGGSLRLSCAASGFTFEEEEMIWVRQAPGKGLEWVSAISRRGYSTYYADSVKGRFTISRDNSKNTLYLQMNSLRAEDTAVYYCGKEPFRYDYWGQGTLVTVSS
B23: BMS3h-38-201 (other)
VH: EVQLLASGGGLVQPGGSLRLSCAASGFTFEEEEMIWVRQAPGKGLEWVSAISGSGGSTYYADSVKGRFTISRDNSKNTLYLQMNSLRAEDTAVYYCGKEPFYYDYWGQGTLVTVSS
B24: BMS3h-38-205 (other)
VH: EVQLLASGGGLVQPGGSLRLSCAASGFTFFAAEMIWVRQAPGKGLEWVSAISGSGGSTYYADSVKGRFTISRDNSKNTLYLQMNSLRAEDTAVYYCGKEPFRYDYWGQGTLVTVSS
B25: BMS3h-38-219 (other)
VH: EVQLLASGGGLVQPGGSLRLSCAASGFTFEEEEMIWVRQAPGKGLEWVSSISRSGGSTYYADSVKGRFTISRDNSKNTLYLQMNSLRAEDTAVYYCGKEPFRYDYWGQGTLVTVSS
B26: BMS3h-38-211 (other)
VH: EVQLLASGGGLVQPGGSLRLSCAASGFTFEEEEMIWVRQAPGKGLEWVSAISRQGGSTYYADSVKGRFTISRDNSKNTLYLQMNSLRAEDTAVYYCGKEPFRYDYWGQGTLVTVSS
B27: BMS3h-38-228 (other)
VH: EVQLLASGGGLVQPGGSLRLSCAASGFTFEEEEMIWVRQAPGKGLEWVSAISRNGFSTYYADSVKGRFTISRDNSKNTLYLQMNSLRAEDTAVYYCGKEPFRYDYWGQGTLVTVSS
B28: BMS3h-38-231 (other)
VH: EVQLLASGGGLVQPGGSLRLSCAASGFPFEEEEMIWVRQAPGKGLEWVSAISRQGWSTYYADSVKGRFTISRDNSKNTLYLQMNSLRAEDTAVYYCGKEPFRYDYWGQGTLVTVSS

Values joined by “and” are separate entries in the source; they are usually repeats but may differ in a detail not shown here. Equal entries are not always repeated. Bounds are passed on as bounds.

T1 sequence (P25942 21-193 limits assumed): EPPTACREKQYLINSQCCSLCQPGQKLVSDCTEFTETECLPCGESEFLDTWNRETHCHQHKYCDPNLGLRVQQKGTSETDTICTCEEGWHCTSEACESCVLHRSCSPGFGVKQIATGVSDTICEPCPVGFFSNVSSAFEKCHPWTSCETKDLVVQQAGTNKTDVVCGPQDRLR
Sequence of human CD40 (P25942 21-277 limits assumed): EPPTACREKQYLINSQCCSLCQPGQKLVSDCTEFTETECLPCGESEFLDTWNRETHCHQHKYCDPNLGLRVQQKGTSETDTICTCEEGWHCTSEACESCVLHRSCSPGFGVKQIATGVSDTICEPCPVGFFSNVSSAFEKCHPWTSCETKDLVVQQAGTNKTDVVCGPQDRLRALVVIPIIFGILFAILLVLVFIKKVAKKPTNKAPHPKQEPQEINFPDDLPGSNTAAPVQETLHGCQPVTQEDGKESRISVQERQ

One test concerns the target T1, human CD40 (BMS, CY24FEB06-01) (human, UniProt P25942 21-193).
T1 construct: Soluble human CD40 reagent of the ELISA RBA
The test can be described thus: ELISA RBA, competition with IZ-CD40L for soluble human CD40.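 Further: Neutravidin-coated 384-well plates, dAb–human CD40 complex incubated 2 h at room temperature, read-out as absorbance at 450 nm.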
Method: Clear walled High Bind, 384-well plates (Corning, UK) were coated with 25 μl of 1 μg/ml Neutravidin in 0.2 M carbonate-bicarbonate buffer, pH 9.4 overnight at 4° C. The following day, assay plates were washed with 0.1% (v/v) Tween PBS buffer, blocked with 1% (w/v) BSA in PBS for 1 hour at room temperature and washed again. […] Following washing of the assay plate, the dAb:human CD40 complex was incubated in the assay plate at room temperature for 2 hours with gentle agitation. […] Absorbance signal was measured using a SpectraMax® M5e plate reader (Molecular Devices) at 450 nm following neutralization with 1M HCl solution.
In turn, B1 returned an EC50 of 11.1 nM.

Regarding B2, the EC50 was determined as 4.5 nM.

As to B3, the EC50 worked out at 4.1 nM. On the same count and under the same terms, then B4, with 7.3 nM; and B5, with 5 nM; and B6, with 2.1 nM and 4.2 nM. Same read-out and setting: the same measure for B7: 2.9 nM; for B8: 2.7 nM. Still for that read-out and setting: then B9, with 2.8 nM and 3.7 nM; and B10, with 9 nM. For the molecule B11, the EC50 amounted to 4.2 nM.

The next test addresses human CD40 (human, UniProt P25942 21-277). The test can be described thus: cell-based or functional assay.
On to B12, for which the “hIZCD40L-driven Human B Cell Proliferation EC50” value is 250 nM. B13: the “CHO-hCD40L-driven DC Activation IL-12 EC50” value was found to be 15.5 nM and the “hIZCD40L-driven Human B Cell Proliferation EC50” value came to 4 nM. With B14, the “hIZCD40L-driven Human B Cell Proliferation EC50” value was determined as 0.7 nM.

As for B15, the “hIZCD40L-driven Human B Cell Proliferation EC50” value is 8 nM. The same measure, in the same setting: the same measure for B16: 1 nM. Consider B17, for which the “CHO-hCD40L-driven DC Activation IL-12 EC50” value stood at 23 nM and the “hIZCD40L-driven Human B Cell Proliferation EC50” value worked out at 5 nM. With B18, the “CHO-hCD40L-driven DC Activation IL-12 EC50” value is 10 nM, the “T-B cell MLR EC50” value stood at 83 nM and the “hIZCD40L-driven Human B Cell Proliferation EC50” value is 0.6 nM. B19: the “CHO-hCD40L-driven DC Activation IL-12 EC50” value worked out at 6.6 nM and the “hIZCD40L-driven Human B Cell Proliferation EC50” value is 2 nM.

Consider B20, for which the “hIZCD40L-driven Human B Cell Proliferation EC50” value is 142 nM. For the molecule B21, the “CHO-hCD40L-driven DC Activation IL-12 EC50” value stood at 6 nM, the “CHO-hCD40L-driven Human B Cell Proliferation EC50” value is 65 nM, the “T-B cell MLR EC50” value was 163 nM and the “hIZCD40L-driven Human B Cell Proliferation EC50” value stood at 1 nM. The matching figures for B22: 1.7 nM, 34 nM, 74 nM and 0.8 nM. Turning to B23, the “CHO-hCD40L-driven DC Activation IL-12 EC50” value was more than 800 nM, the “CHO-hCD40L-driven Human B Cell Proliferation EC50” value was more than 7000 nM and the “hIZCD40L-driven Human B Cell Proliferation EC50” value is more than 70 nM. As for B24, the “CHO-hCD40L-driven DC Activation IL-12 EC50” value was determined as 29 nM, the “CHO-hCD40L-driven Human B Cell Proliferation EC50” value was found to be 1100 nM and the “hIZCD40L-driven Human B Cell Proliferation EC50” value amounted to 4 nM. On to B25, for which the “CHO-hCD40L-driven DC Activation IL-12 EC50” value worked out at 9 nM, the “CHO-hCD40L-driven Human B Cell Proliferation EC50” value turned out to be 93 nM, the “T-B cell MLR EC50” value came to 164 nM and the “hIZCD40L-driven Human B Cell Proliferation EC50” value came to 2 nM.

Turning to B26, the “CHO-hCD40L-driven DC Activation IL-12 EC50” value is 18 nM, the “CHO-hCD40L-driven Human B Cell Proliferation EC50” value amounted to 82 nM, the “T-B cell MLR EC50” value amounted to 200 nM and the “hIZCD40L-driven Human B Cell Proliferation EC50” value came to 2 nM. For B27, the “hIZCD40L-driven Human B Cell Proliferation EC50” value came to 0.7 nM. On the same count and under the same terms, the same measure for B28: 0.66 nM.
